Reference: patent US20220411504A1 (Janssen / Centocor, published 2022)

T1: CD3W147 (homodimeric CD3εγ-Fc) (human, biotinylated)
T1 construct: also called recombinant CD3
T1 chain: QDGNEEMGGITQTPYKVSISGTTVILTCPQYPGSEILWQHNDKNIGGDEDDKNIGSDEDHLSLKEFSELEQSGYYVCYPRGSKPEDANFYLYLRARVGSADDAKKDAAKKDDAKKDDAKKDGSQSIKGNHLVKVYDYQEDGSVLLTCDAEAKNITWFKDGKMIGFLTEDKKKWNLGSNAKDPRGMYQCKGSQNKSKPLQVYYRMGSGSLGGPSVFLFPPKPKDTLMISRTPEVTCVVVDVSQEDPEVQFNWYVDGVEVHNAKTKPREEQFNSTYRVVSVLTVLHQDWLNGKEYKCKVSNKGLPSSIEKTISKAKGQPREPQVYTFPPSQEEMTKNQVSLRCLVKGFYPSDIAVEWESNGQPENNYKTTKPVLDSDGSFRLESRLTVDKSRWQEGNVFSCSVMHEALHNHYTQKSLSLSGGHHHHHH


Legend:
[1] = target: T2, MHGW8 (B2m-3(G4S)-HLA-G1-G4S-Avi) (human, biotinylated (Avi tag) in the blocking assay); assay: flow cytometry competition: blocks MHGW8-dextramer binding to ILT2 on HEK293T cells (competitor ILT2)
T2 construct: Single chain β2m-HLA-G1; also called soluble HLA-G1 extracellular domain; recombinant biotinylated HLA-G1

[2] = target: T2, MHGW8 (B2m-3(G4S)-HLA-G1-G4S-Avi); assay: SPR, mAb captured by goat anti-human Fc, MHGW8 flowed
[3] = target: T3, HLA-G on cells (K562-HLA-G and HLA-G expressing tumor cells) (human); assay: flow cytometry, IgG1 mAb on cells expressing HLA-G
T3 construct: whole, on cells; also called HLA-G1

[4] = target: T2, MHGW8 (B2m-3(G4S)-HLA-G1-G4S-Avi); assay: flow cytometry competition: blocks MHGW8-dextramer binding to ILT4 on HEK293T cells (competitor ILT4)
[5] = target: T4, Human CD3 epsilon (CD3ε) of the T cell receptor complex on cells (human, UniProt P07766 23-207); assay: flow cytometry, E. coli supernatant on human T cells
T4 construct: On Jurkat cells and primary human (pan) T cells; also called T-cell surface glycoprotein CD3 epsilon chain; T3E
T4 sequence (P07766 23-207 limits assumed, one chain of several): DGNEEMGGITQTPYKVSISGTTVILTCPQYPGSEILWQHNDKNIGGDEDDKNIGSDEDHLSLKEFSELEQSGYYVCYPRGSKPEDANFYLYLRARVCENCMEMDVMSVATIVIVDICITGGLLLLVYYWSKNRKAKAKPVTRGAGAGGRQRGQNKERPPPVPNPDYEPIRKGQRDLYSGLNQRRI

[6] = target: T1, CD3W147 (homodimeric CD3εγ-Fc); assay: ELISA, E. coli supernatant (heated to 60° C., cooled) on biotinylated CD3W147

Row | Binder | EC50 [1] | Kd [2] | koff [2] | kon [2] | GeoMean fluorescence (maximum value) [3] | EC50 [4] | MFI (n = 2) [5] | binding result [6]
1 | MHGB694 (antibody, human IgG1, kappa, V domains shown, IgG1) VH: EVQLLESGGGLVQPGGSLRLSCAASGFTFSSYAMHWVRQAPGKGLDWVSGISGSGFSTYYVDSVKGRFTISRDNSKHTLYLQMNSLRAEDTAVYYCAKDNLVAGTVFDYWGQGTLVTVSS VL: not shown | 644 nM | 1.15 nM | 0.0024 s⁻¹ | 2.08e+06 M⁻¹ s⁻¹ | 473000 | 200 nM | – | –
2 | MHGB668 (antibody, human IgG1, kappa, V domains shown, IgG1) VH: QVQLQQSGPGLVKPSQTLSLTCAISGDSVSNNSAAWNWIRQSPSRGLEWLGRTYYRSKWYNDYAVSVKSRITINPDTSKNQFSLQLNSVTPEDTAVYYCARYGSGTLLFDYWGQGTLVTVSS VL: not shown | – | – | – | – | 591000 | – | – | –
3 | MHGB669 (antibody, human IgG1, kappa, V domains shown, IgG1) VH: QVQLQQSGPGLVRPSQTLSVTCAISGDSVSSNSASWNWIRQSPSRGLEWLGRTYYRSEWFNDYAVSVKSRVTINPDTSKNQLSLQLNSVIPEDTAVYYCAREARIGVAGKGFDYWGQGTLVTVSS VL: not shown | 1700 nM | 1.44 nM | 0.000453 s⁻¹ | 315000 M⁻¹ s⁻¹ | 616000 | 1590 nM | – | –
4 | MHGB672 (antibody, human IgG1, kappa, V domains shown, IgG1) VH: QVQLQQSGPGLVKPSQTLSLTCAISGDSVSSNRAAWNWIRQTPSRGLEWLGRTYYRSEWYNDYAVSVKSRITINPDTSKNQFSLQLNSVTPEDTAVYYCARVRAAVPFDYWGQGTLVTVSS VL: not shown | 2120 nM | 0.55 nM | 0.00179 s⁻¹ | 3.25e+06 M⁻¹ s⁻¹ | 522000 | 1610 nM | – | –
5 | MHGB687 (antibody, human IgG1, kappa, V domains shown, IgG1) VH: QLQLQESGPGLVKPSETLSLMCTVSGGSITSSSYYWGWIRQPPGKGLEWIGNIYYSGTTYYNPSLKSRVTISVDTSKNQFSLKLSSVTAADTAVYYCAAGARDFDSWGQGSLVTVSS VL: not shown | – | 0.809 nM | 0.000153 s⁻¹ | 189000 M⁻¹ s⁻¹ | 528000 | 1860 nM | – | –
6 | CD3W246-HL-E.c. (scFv, E. coli supernatant) scFv: EVQLVESGGGLVKPGGSLRLSCAASGFTFSRYNMNWVRQAPGKGLEWVSSISTSSNYIYYADSVKGRFTFSRDNAKNSLDLQMSGLRAEDTAIYYCTRGWGPFDYWGQGTLVTVSSGTEGKSSGSGSESKSTDIQMTQSPSSLSASVGDRVTITCRARQSIGTAIHWYQQKPGKAPKLLIKYASESISGVPSRFSGSGSGTDFTLTISSVQPEDFATYYCQQSGSWPYTFGQGTKLEIKGPGGQHHHHHHGAYPYDVPDYAS | – | – | – | – | – | – | 154000 | binds
7 | CD3W247-HL-E.c. (scFv, E. coli supernatant) scFv: EVQLVESGGGLVKPGGSLRLSCAASGFTFSRYNMNWVRQAPGKGLEWVSSISTSSNYIYYADSVKGRFTFSRDNAKNSLDLQMSGLRAEDTAIYYCTRGWGPFDYWGQGTLVTVSSGTEGKSSGSGSESKSTDIQMTQSPSSLSASVGDRVTITCRARQSIGTAIHWYQQKPGKAPKLLIYYASESISGVPSRFSGSGSGTDFTLTISSLQPEDFATYYCQQSGSWPYTFGQGTKLEIKGPGGQHHHHHHGAYPYDVPDYAS | – | – | – | – | – | – | 111000 | binds
8 | MHGB688 (antibody, human IgG1, kappa, V domains shown, IgG1) VH: EVQLLESGPGLVKPSQTLSLTCVISGDSVSSNRAAWNWIRQSPSRGLEWLGRTYYRSKWYNDYAVSVKSRITINSDTSKNQISLQLNSVTPEDTAVYYCARVRPGIPFDYWGQGTPVTVSS VL: not shown | 1720 nM | 0.4 nM | 0.000263 s⁻¹ | 658000 M⁻¹ s⁻¹ | 482000 | 1420 nM | – | –
9 | MHGB738 (antibody, human IgG1, kappa, V domains shown, IgG1; also called GL optimized B688) VH: QVQLQQSGPGLVKPSQTLSLTCAISGDSVSSNRAAWNWIRQSPSRGLEWLGRTYYRSKWYNDYAVSVKSRITINPDTSKNQISLQLNSVTPEDTAVYYCARVRPGIPFDYWGQGTPVTVSS VL: not shown | 1.6 nM | 0.139 nM | – | – | – | 1.6 nM | – | –
